Measured values: PMC7322189 (iScience, 2020)
One block for each binder: values may come before it.

How the values were obtained:
GST-hExo70 (human Exo70) = GST-hExo70 (human Exo70) (human, UniProt Q9UPT5 1-735); assay: pull-down
GST-Exo70p (yeast Exo70) = GST-Exo70p (yeast Exo70) (yeast, UniProt P19658 1-623); assay: pull-down
Chain of GST-Exo70p (yeast Exo70) (P19658 whole entry): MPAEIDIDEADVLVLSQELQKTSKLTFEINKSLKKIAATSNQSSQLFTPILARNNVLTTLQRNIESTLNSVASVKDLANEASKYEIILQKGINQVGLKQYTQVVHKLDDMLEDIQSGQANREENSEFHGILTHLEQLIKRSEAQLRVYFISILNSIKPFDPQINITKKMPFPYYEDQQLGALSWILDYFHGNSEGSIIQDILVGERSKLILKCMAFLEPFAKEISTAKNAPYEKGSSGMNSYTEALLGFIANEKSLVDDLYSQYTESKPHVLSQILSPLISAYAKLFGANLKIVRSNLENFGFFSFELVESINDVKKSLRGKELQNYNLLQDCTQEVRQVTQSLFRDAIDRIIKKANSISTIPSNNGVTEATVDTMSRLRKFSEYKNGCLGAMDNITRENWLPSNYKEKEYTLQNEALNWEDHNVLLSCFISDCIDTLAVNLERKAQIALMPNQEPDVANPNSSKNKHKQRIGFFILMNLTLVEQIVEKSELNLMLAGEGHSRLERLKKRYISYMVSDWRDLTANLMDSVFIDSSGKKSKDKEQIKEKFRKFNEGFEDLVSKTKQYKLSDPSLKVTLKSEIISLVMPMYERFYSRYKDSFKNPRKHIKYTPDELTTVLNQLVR

Chain of GST-hExo70 (human Exo70) (Q9UPT5 whole entry): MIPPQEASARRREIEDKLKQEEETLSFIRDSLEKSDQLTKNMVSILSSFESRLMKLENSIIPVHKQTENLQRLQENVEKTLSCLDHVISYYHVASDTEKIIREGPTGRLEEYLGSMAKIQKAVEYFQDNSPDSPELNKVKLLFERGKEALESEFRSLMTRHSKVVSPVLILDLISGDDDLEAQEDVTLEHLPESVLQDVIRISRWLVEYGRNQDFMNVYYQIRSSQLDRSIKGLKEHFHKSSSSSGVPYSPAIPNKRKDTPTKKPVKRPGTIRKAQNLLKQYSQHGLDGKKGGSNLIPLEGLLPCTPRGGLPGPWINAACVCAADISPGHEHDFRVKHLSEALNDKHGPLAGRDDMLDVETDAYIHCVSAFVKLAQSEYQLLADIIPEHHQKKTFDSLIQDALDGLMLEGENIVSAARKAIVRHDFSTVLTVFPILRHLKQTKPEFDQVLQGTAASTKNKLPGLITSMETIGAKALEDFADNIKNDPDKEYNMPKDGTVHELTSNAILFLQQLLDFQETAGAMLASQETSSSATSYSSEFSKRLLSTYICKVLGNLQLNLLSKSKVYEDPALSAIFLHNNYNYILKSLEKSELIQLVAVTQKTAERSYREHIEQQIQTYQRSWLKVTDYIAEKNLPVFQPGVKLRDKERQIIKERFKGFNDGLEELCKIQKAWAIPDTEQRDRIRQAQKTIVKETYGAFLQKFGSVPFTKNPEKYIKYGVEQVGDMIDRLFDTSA

- fold binding against yeast Exo70p (GST-hExo70 (human Exo70)): 4 fold
B1: Recombinant His-GIV-CT (C terminus of GIV/Girdin), wild type (domain or fragment)
chain: SETLESRHHKIKTGSPGSEVVTLQQFLEESNKLTSVQIKSSSQENLLDEVMKSLSVSSDFLGKDKPVSCGLARSVSGKTPGDFYDRRTTKPEFLRPGPRKTEDTYFISSAGKPTPGTQGKIKLVKESSLSRQSKDSNPYATLPRASSVISTAEGTTRRTSIHDFLTKDSRLPISVDSPPAAADSNTTAASNVDKVQESRNSKSRSREQQSS

- fold binding against human Exo70 (GST-Exo70p (yeast Exo70)): 2 fold
B2: Recombinant His-Bem1p (natural protein, yeast, UniProt P29366 1-551, looked up)
chain: MLKNFKLSKRDSNGSKGRITSADISTPSHDNGSVIKHIKTVPVRYLSSSSTPVKSQRDSSPKNRHNSKDITSPEKVIKAKYSYQAQTSKELSFMEGEFFYVSGDEKDWYKASNPSTGKEGVVPKTYFEVFDRTKPSSVNGSNSSSRKVTNDSLNMGSLYAIVLYDFKAEKADELTTYVGENLFICAHHNCEWFIAKPIGRLGGPGLVPVGFVSIIDIATGYATGNDVIEDIKSVNLPTVQEWKSNIARYKASNISLGSVEQQQQQSITKPQNKSAKLVDGELLVKASVESFGLEDEKYWFLVCCELSNGKTRQLKRYYQDFYDLQVQLLDAFPAEAGKLRDAGGQWSKRIMPYIPGPVPYVTNSITKKRKEDLNIYVADLVNLPDYISRSEMVHSLFVVLNNGFDREFERDENQNNIKTLQENDTATFATASQTSNFASTNQDNTLTGEDLKLNKKLSDLSLSGSKQAPAQSTSGLKTTKIKFYYKDDIFALMLKGDTTYKELRSKIAPRIDTDNFKLQTKLFDGSGEEIKTDSQVSNIIQAKLKISVHDI
